Results published in patent US20060216236A1 (published 2006).

Molecular target: integrin αvβ3 on human tumor cells (ECV304 bladder carcinoma, M21 melanoma) (human, UniProt P06756 31-1048; P05106 27-788)
Experiment: cell-based or functional assay

integrin αvβ3 on human tumor cells (ECV304 bladder carcinoma, M21 melanoma), sequence (P06756 31-1048, chain 1 of 2): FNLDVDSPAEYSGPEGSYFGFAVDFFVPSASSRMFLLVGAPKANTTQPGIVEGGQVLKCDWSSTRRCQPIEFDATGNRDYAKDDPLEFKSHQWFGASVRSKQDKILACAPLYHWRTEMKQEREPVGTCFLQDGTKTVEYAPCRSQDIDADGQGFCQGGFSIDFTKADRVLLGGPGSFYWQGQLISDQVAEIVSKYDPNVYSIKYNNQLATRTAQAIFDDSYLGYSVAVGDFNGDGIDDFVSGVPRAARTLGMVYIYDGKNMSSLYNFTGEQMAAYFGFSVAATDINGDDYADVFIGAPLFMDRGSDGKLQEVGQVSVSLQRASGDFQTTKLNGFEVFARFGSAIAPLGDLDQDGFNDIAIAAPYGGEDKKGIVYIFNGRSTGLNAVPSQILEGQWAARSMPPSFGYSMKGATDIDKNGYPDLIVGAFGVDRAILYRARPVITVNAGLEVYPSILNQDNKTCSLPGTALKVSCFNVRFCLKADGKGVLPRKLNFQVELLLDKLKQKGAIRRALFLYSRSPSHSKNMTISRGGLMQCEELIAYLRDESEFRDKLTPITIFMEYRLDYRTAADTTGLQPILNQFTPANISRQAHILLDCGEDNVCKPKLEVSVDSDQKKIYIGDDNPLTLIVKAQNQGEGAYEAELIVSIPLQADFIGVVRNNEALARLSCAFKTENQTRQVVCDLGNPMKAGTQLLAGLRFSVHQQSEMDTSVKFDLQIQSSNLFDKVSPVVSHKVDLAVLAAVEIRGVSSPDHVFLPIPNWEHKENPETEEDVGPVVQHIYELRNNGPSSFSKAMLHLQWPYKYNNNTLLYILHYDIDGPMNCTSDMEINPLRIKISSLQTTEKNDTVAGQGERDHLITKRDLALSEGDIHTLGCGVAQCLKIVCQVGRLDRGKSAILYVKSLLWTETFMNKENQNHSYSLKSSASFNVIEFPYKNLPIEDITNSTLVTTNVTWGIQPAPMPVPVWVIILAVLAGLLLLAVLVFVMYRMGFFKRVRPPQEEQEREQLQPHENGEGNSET
integrin αvβ3 on human tumor cells (ECV304 bladder carcinoma, M21 melanoma), sequence (P05106 27-788, chain 2 of 2): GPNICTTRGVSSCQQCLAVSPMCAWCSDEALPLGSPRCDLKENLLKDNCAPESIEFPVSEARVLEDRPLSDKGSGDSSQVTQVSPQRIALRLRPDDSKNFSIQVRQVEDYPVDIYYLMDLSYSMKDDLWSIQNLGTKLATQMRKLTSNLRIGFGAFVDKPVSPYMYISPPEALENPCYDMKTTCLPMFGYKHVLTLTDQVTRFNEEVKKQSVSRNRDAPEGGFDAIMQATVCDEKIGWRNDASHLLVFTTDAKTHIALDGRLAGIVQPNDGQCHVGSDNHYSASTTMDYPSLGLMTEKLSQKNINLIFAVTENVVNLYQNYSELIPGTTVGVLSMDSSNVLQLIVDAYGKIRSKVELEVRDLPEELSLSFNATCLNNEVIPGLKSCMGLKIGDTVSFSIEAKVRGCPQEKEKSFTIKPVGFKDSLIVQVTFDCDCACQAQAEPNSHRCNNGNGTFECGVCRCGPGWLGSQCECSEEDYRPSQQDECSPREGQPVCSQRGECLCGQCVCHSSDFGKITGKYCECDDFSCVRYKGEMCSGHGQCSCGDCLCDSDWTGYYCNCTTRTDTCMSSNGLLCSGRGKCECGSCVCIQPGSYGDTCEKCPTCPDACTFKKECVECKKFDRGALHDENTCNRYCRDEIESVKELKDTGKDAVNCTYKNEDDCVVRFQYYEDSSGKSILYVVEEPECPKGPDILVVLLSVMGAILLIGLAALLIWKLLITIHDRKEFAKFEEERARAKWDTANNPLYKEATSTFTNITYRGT

B1: Mab LM609 (anti-αvβ3) (antibody, V domains shown)
VH: EVQLVESGGGLVKPGRSLRLSCAASGFAFSSYDMSWVRQIPEKRLEWVAKVSSGGGSTYYLDTVQGRFTISRDNAKNTLYLQMSSLNSEDTAMYYCARHNYGSFAYWGQGTLVTVSA
VL: DIVLTQSPATLSVTPGDSVSLSCQASQSISNHLHWYQQKSHESPRLLIKYRSQSISGIPSRFSGSGSGTDFALSINSVETEDFGMYFCQQSGSWPHTFGGGTKLEIK
Q: With B1 as the binder, how does the “relative level of IGFBP-4 RNA (real time PCR) in M21 cells on denatured collagen type-IV” value read?
A: Its value is ~8 fold.

Q: And the “relative level of TSP-1 RNA (real time PCR) in M21 cells on denatured collagen type-IV” value?
A: The value was ~8 fold.
